In US20160159869A1 (NORTHWESTERN UNIVERSITY, published 2016):
C16 = C16 alkyl tail covalently attached at the N-terminus

T1: Human recombinant BMP-2 with hexahistidine-tag fused at the C-terminus (AdipoGen) (human, UniProt P12643 283-396)
T1 construct: Immobilised on a Ni2+-NTA chip for SPR; also called His-BMP-2; hexahistidine-tagged BMP-2
T1 sequence: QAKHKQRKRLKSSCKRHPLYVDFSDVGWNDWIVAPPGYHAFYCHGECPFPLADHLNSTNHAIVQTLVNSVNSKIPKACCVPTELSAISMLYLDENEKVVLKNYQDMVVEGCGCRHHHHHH


Columns and labels:
[1] = molecular target: Recombinant human BMP-2 (Medtronic Sofamor Danek) (human) (UniProt P12643); assay: capture of BMP-2 by a 20 µL PA gel from medium containing 25 ng BMP-2, 37 °C, 4 h, sandwich ELISA of the medium
[2] = molecular target: T1, Human recombinant BMP-2 with …; assay: SPR (Biacore 3000), His-BMP-2 immobilised on Ni2+-NTA chip, PA injected at pH 8.4, 2:1 binding model, KD from the major dissociation rate and ka; diluent PA (no binding segment), prepared at pH 8.4
Protocol: As a control, the BMP-2-binding PA ([…], pH 7.4) was injected to a bare NTA-dextran chip, and we observed non-specific binding of the PA to the surface (FIG. 4). It is contemplated that the fibrillar nanostructures can be entangled to the NTA-dextran surface. To circumvent this, the BMP-2-binding PA was prepared at pH 8.4, where more glutamic acid residues are deprotonated to induce greater electrostatic repulsion between the PA molecules, and sonicated the solution to further break up the supramolecular assembly. […] The best fit was obtained by using the 2:1 binding model, which had two dissociation constants: a major dissociation constant (k_{d,1}) and a minor dissociation constant (k_{d,2}) with the ratio of their contributions (R₁/R₂).
The SPR measurements were performed using a Biacore 3000 instrument (GE Healthcare, Pittsburgh, Pa.) equipped with a NTA Sensor Chip (GE Healthcare) at 25° C. HBS-P eluent buffer and HBS-EP dispenser buffer were purchased from GE Healthcare. NiCl 2 solution (500 μM in eluent buffer), elution buffer (300 mM imidazole and 500 mM NaCl in water), and regeneration buffer (10 mM HEPES, 150 mM NaCl, 0.005% polysorbate 20, 350 mM EDTA at pH 7.4) were prepared according to Biacore specifications. […]

[3] = molecular target: T1, Human recombinant BMP-2 with …; assay: SPR (Biacore 3000): His-BMP-2 captured on Ni2+-NTA chip, PA injected at pH 8.4. Fit with the 2:1 binding model. Column ka.
Protocol: (§1) The SPR measurements were performed using a Biacore 3000 instrument (GE Healthcare, Pittsburgh, Pa.) equipped with a NTA Sensor Chip (GE Healthcare) at 25° C. HBS-P eluent buffer and HBS-EP dispenser buffer were purchased from GE Healthcare. NiCl 2 solution (500 μM in eluent buffer), elution buffer (300 mM imidazole and 500 mM NaCl in water), and regeneration buffer (10 mM HEPES, 150 mM NaCl, 0.005% polysorbate 20, 350 mM EDTA at pH 7.4) were prepared according to Biacore specifications. Human recombinant BMP-2 with hexahistidine-tag fused at the C-terminus (AdipoGen, San Diego, Calif.) was initially reconstituted in PBS at 20 μg/ml, and diluted to 500 nM in eluent buffer.
(§2) Ni²⁺ was first loaded on the NTA chip for 5 min at a flow rate of 20 μl/min, and then His-BMP-2 for 1.25 min at 4 μl/min. Afterwards, each PA sample was injected for 2 min at […], followed by 5 min dissociation at […]. […] To compare binding affinity of the PAs, the sensograms were processed and analyzed with BIAevaluation 4.1 software. The sensogram from blank injection was subtracted from the PA sensograms, and the apparent equilibrium dissociation constant KD was determined using 2:1 binding model, which assumes bivalent analyte interaction with two dissociation constants kd,1 and kd,2, where kd,1 is more dominant.

[4] = molecular target: T1, Human recombinant BMP-2 with …; assay: SPR (Biacore 3000): His-BMP-2 captured on Ni2+-NTA chip, PA injected at pH 8.4. Fit with the 2:1 binding model. Column kd,1 (major dissociation rate constant).
Protocol: as §1, §2

| Molecule | amount of BMP-2 bound on the gel after 4 h [1] [ng] | Kd [2] [nM] | kon [3] [M⁻¹ s⁻¹] | koff [4] [s⁻¹] |
| --- | --- | --- | --- | --- |
| diluted BMP-2-binding PA (D-BMP2b-PA), co-assembly of BMP2b-PA and diluent PA at 1:1 weight ratio | 15.5 | – | – | – |
| C16-VVVAAAEEE-OH (In SPR it was used as a solution at pH 8.4; In the capture assay it was a 1 wt % nanofiber gel formed with CaCl2; also called diluent PA gel) [diluent PA, C16-V3A3E3-COOH] | – | 2100 | 5300 | 0.011 |
